Measurements published in patent US20080181886A1 (Genentech, published 2008).

What follows are binders tested against T1, Murine APRIL (mouse, UniProt Q9D777 105-241, limits assumed) (assay: shotgun scan, phage display).
T1 sequence (looked up): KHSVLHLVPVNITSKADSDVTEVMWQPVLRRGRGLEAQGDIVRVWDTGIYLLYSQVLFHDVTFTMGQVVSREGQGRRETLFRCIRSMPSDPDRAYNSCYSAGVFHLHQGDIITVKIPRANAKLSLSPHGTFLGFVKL
From the text: (§1) Phage from each of the libraries described above were subjected to rounds of binding selection against APRIL, BAFF, or anti-tag antibody (3C8:2F4 Genentech, Inc.) immobilized on 96-well Nunc Maxisorp immunoplates (Sidhu, 2001). BSA-coated wells were used to determine non-specific background binding. Phage eluted from each target were propagated in E. coli XL1-Blue in the presence of M13K07 helper phage; amplified phage were used for selection against the same target in the […] round. […] Enrichment was calculated from the ratio of the phage titer eluted from the target-coated wells to the phage titer eluted from the BSA-coated wells. Individual clones from each library and selection target were then grown in a 96-well format in 400 ul of 2YT medium supplemented with carbenicillin and KO7 helper phage. […] Sequences of acceptable quality were translated and aligned. For APRIL-binding, 71, 40, and 54 sequences were analyzed from libraries one, two and three, respectively. For BAFF-binding, 70, 50, and 53 sequences were analyzed for libraries one, two and three, respectively. For the display selection, a minimum of 47 sequences were analyzed for each library. […] F values describe the effect of mutation on target binding, while accounting for differences in display efficiencies, with values >1 representing deleterious mutations and those <1 representing favorable mutations.
SLSCRKEPGKFYDHLLRDCISCASICGQHPKQCAYFCENKLR (receptor, phage library variant, format as m9) [TACI_d2 Q75P] was tested, and the “F (APRIL)” value was 1.1.
With SLSCRKEQGKFYDPLLRDCISCASICGQHPKQCAYFCENKLR (receptor, phage library variant, format as m9) [TACI_d2 H81P] the “F (APRIL)” value was 1.5.
SLSCRKEQGKFYDHLLRDCISCASICGQHPKQCAYFCENKLA (receptor, phage library variant, format as m9) [TACI_d2 R109A] was tested, and the “F (APRIL)” value was 1.5.
For SLSCRKEQGKFYDHLLRDCISCASICGQHPKQCAYFCENKAR (receptor, phage library variant, format as m9) [TACI_d2 L108A], the “F (APRIL)” value was 1.
With SLSCRKEQGTFYDHLLRDCISCASICGQHPKQCAYFCENKLR (receptor, phage library variant, format as m9) [TACI_d2 K77T] the “F (APRIL)” value was 0.7.
In the case of SLSCRTEQGKFYDHLLRDCISCASICGQHPKQCAYFCENKLR (receptor, phage library variant, format as m9) [TACI_d2 K73T], the “F (APRIL)” value is reported as 5.
For SLSCRKEQGKFYDHLLRDCISCASICGQHPKQCAYVCENKLR (receptor, phage library variant, format as m9) [TACI_d2 F103V], the “F (APRIL)” value was 0.6.
For SLSCRKEQGKFYDHLLRDCISCASICGQHPKQCAYFCEAKLR (receptor, phage library variant, format as m9) [TACI_d2 N106A], the “F (APRIL)” value was 1.2.
SLSCRKEQGKFYDHLLRDCTSCASICGQHPKQCAYFCENKLR (receptor, phage library variant, format as m9) [TACI_d2 I87T] was tested, and the “F (APRIL)” value was greater than 19.
SLSCRKEQGKFYDHLLRDCISCASICGQHPKQCAAFCENKLR (receptor, phage library variant, format as m9) [TACI_d2 Y102A] was tested, and the “F (APRIL)” value was 1.6.
For SLSCRKEQGKFYDHLLRDCISCASICGQHPKQCAYFCENKLG (receptor, phage library variant, format as m9) [TACI_d2 R109G], the “F (APRIL)” value was 1.2.
With SLSCRKEQGKFYDHALRDCISCASICGQHPKQCAYFCENKLR (receptor, phage library variant, format as m9) [TACI_d2 L82A] the “F (APRIL)” value was greater than 29.
For SLSCRKEQGKFYDHLVRDCISCASICGQHPKQCAYFCENKLR (receptor, phage library variant, format as m9) [TACI_d2 L83V], the “F (APRIL)” value was 4.8.
For SLSCRKEQGKFYDHVLRDCISCASICGQHPKQCAYFCENKLR (receptor, phage library variant, format as m9) [TACI_d2 L82V], the “F (APRIL)” value was greater than 20.
In the case of SLSCRKEQGKFYDHLLRDCISCASICGQHPKQCAYFCENKVR (receptor, phage library variant, format as m9) [TACI_d2 L108V], the “F (APRIL)” value is reported as 0.9.
In the case of SLSCAKEQGKFYDHLLRDCISCASICGQHPKQCAYFCENKLR (receptor, phage library variant, format as m9) [TACI_d2 R72A], the “F (APRIL)” value is reported as 1.1.
For SLSCRAEQGKFYDHLLRDCISCASICGQHPKQCAYFCENKLR (receptor, phage library variant, format as m9) [TACI_d2 K73A], the “F (APRIL)” value was 1.6.
SLSCPKEQGKFYDHLLRDCISCASICGQHPKQCAYFCENKLR (receptor, phage library variant, format as m9) [TACI_d2 R72P] was tested, and the “F (APRIL)” value was 0.7.
For SLSCRKEQGKFYDHLLRDCASCASICGQHPKQCAYFCENKLR (receptor, phage library variant, format as m9) [TACI_d2 I87A], the “F (APRIL)” value was greater than 27.
With SLSCRKEQGKFYDHLLRDCISCASICGQHPKQCADFCENKLR (receptor, phage library variant, format as m9) [TACI_d2 Y102D] the “F (APRIL)” value was 0.8.
With SLSCRKEQGKFYDHLLRDCISCASICGQHPKPCAYFCENKLR (receptor, phage library variant, format as m9) [TACI_d2 Q99P] the “F (APRIL)” value was 1.5.
In the case of SLSCRKEQGKFYDHLLRDCISCASICGQHPTQCAYFCENKLR (receptor, phage library variant, format as m9) [TACI_d2 K98T], the “F (APRIL)” value is reported as 6.4.

Each binder was assayed against human BAFF (human, UniProt Q9Y275 82-285, limits assumed) (assay: shotgun scan, phage display).
Chain of human BAFF (Q9Y275 82-285 limits assumed): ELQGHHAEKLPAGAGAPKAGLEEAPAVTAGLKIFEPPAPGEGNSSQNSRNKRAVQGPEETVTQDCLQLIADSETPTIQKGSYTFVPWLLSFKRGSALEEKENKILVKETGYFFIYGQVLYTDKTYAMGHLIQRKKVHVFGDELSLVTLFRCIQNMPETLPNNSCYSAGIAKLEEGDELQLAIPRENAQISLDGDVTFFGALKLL
From the text: as §1
In the case of SLSCRKEPGKFYDHLLRDCISCASICGQHPKQCAYFCENKLR (receptor, phage library variant, format as m9) [TACI_d2 Q75P], the “F (BAFF)” value is reported as 0.8.
SLSCRKEQGKFYDPLLRDCISCASICGQHPKQCAYFCENKLR (receptor, phage library variant, format as m9) [TACI_d2 H81P] was tested, and the “F (BAFF)” value was 0.8.
In the case of SLSCRKEQGKFYDHLLRDCISCASICGQHPKQCAYFCENKLA (receptor, phage library variant, format as m9) [TACI_d2 R109A], the “F (BAFF)” value is reported as 0.9.
With SLSCRKEQGKFYDHLLRDCISCASICGQHPKQCAYFCENKAR (receptor, phage library variant, format as m9) [TACI_d2 L108A] the “F (BAFF)” value was 1.2.
With SLSCRKEQGTFYDHLLRDCISCASICGQHPKQCAYFCENKLR (receptor, phage library variant, format as m9) [TACI_d2 K77T] the “F (BAFF)” value was 0.6.
In the case of SLSCRTEQGKFYDHLLRDCISCASICGQHPKQCAYFCENKLR (receptor, phage library variant, format as m9) [TACI_d2 K73T], the “F (BAFF)” value is reported as 8.9.
With SLSCRKEQGKFYDHLLRDCISCASICGQHPKQCAYVCENKLR (receptor, phage library variant, format as m9) [TACI_d2 F103V] the “F (BAFF)” value was 0.7.
SLSCRKEQGKFYDHLLRDCISCASICGQHPKQCAYFCEAKLR (receptor, phage library variant, format as m9) [TACI_d2 N106A] was tested, and the “F (BAFF)” value was 0.9.
In the case of SLSCRKEQGKFYDHLLRDCTSCASICGQHPKQCAYFCENKLR (receptor, phage library variant, format as m9) [TACI_d2 I87T], the “F (BAFF)” value is reported as greater than 22.
SLSCRKEQGKFYDHLLRDCISCASICGQHPKQCAAFCENKLR (receptor, phage library variant, format as m9) [TACI_d2 Y102A] was tested, and the “F (BAFF)” value was 2.
With SLSCRKEQGKFYDHLLRDCISCASICGQHPKQCAYFCENKLG (receptor, phage library variant, format as m9) [TACI_d2 R109G] the “F (BAFF)” value was 1.2.
SLSCRKEQGKFYDHALRDCISCASICGQHPKQCAYFCENKLR (receptor, phage library variant, format as m9) [TACI_d2 L82A] was tested, and the “F (BAFF)” value was greater than 36.
SLSCRKEQGKFYDHLVRDCISCASICGQHPKQCAYFCENKLR (receptor, phage library variant, format as m9) [TACI_d2 L83V] was tested, and the “F (BAFF)” value was 1.6.
In the case of SLSCRKEQGKFYDHVLRDCISCASICGQHPKQCAYFCENKLR (receptor, phage library variant, format as m9) [TACI_d2 L82V], the “F (BAFF)” value is reported as greater than 25.
In the case of SLSCRKEQGKFYDHLLRDCISCASICGQHPKQCAYFCENKVR (receptor, phage library variant, format as m9) [TACI_d2 L108V], the “F (BAFF)” value is reported as 1.2.
For SLSCAKEQGKFYDHLLRDCISCASICGQHPKQCAYFCENKLR (receptor, phage library variant, format as m9) [TACI_d2 R72A], the “F (BAFF)” value was 0.4.
With SLSCRAEQGKFYDHLLRDCISCASICGQHPKQCAYFCENKLR (receptor, phage library variant, format as m9) [TACI_d2 K73A] the “F (BAFF)” value was 2.
For SLSCPKEQGKFYDHLLRDCISCASICGQHPKQCAYFCENKLR (receptor, phage library variant, format as m9) [TACI_d2 R72P], the “F (BAFF)” value was 0.6.
SLSCRKEQGKFYDHLLRDCASCASICGQHPKQCAYFCENKLR (receptor, phage library variant, format as m9) [TACI_d2 I87A] was tested, and the “F (BAFF)” value was greater than 30.
In the case of SLSCRKEQGKFYDHLLRDCISCASICGQHPKQCADFCENKLR (receptor, phage library variant, format as m9) [TACI_d2 Y102D], the “F (BAFF)” value is reported as 0.6.
For SLSCRKEQGKFYDHLLRDCISCASICGQHPKPCAYFCENKLR (receptor, phage library variant, format as m9) [TACI_d2 Q99P], the “F (BAFF)” value was 1.8.
For SLSCRKEQGKFYDHLLRDCISCASICGQHPTQCAYFCENKLR (receptor, phage library variant, format as m9) [TACI_d2 K98T], the “F (BAFF)” value was 8.7.
